# Test results reported in patent publication US6406886.
# B1: Span-N/GST fusion protein (protein, not shown: a dimerising Fc or GST)
# chain: MYNNQEAGAAFMQFLTLLGDVVRLKGFESYRAQLDTKTDSTGTHSLYTTYQDHEIMFHVSTMLPYTPNNQQQLLRKRHIGNDIVTIVFQEPGSKPFCPTTIRSHFQHVFLVVRAHAPCTPHTSYRVAVSRTQDTPAFGPALPEGGGPFAANADFRAFLLAKALNGEQAAGHARQFHAMATRTRQQYLQDL
# Key:
# Test in all cases: cell-based or functional assay
# [1] = target: human Rap1A (Glu63) (1st to 184th residues) (human) (UniProt P62834)
# Ran = target: Ran
# Rac1 = target: Rac1
# [2] = target: human RhoA (1st to 193 residues) GST fusion protein (human) (UniProt P61586)
# Sequence of human RhoA (1st to 193 residues) GST fusion protein (human) (P61586 whole entry, form in doubt, the tested form may be a part): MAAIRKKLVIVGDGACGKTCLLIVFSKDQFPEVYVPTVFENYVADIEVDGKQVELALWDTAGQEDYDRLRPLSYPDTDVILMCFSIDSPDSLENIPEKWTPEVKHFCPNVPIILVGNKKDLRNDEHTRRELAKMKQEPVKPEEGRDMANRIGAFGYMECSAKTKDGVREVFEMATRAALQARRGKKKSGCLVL
# [3] = target: human Ha-Ras (1st to 189th residues) (human) (UniProt P01112)
# Sequence of human Ha-Ras (1st to 189th residues) (human) (P01112 whole entry, form in doubt): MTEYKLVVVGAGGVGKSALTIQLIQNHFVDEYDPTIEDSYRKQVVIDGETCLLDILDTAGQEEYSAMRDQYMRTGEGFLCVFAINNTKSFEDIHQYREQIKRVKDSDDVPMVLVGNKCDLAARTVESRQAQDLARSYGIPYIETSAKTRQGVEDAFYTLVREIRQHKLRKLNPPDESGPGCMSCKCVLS
# [4] = target: yeast Rsr1 (1st to 272nd residues) (yeast) (UniProt P13856)
# Sequence of yeast Rsr1 (1st to 272nd residues) (yeast) (P13856 whole entry, form in doubt): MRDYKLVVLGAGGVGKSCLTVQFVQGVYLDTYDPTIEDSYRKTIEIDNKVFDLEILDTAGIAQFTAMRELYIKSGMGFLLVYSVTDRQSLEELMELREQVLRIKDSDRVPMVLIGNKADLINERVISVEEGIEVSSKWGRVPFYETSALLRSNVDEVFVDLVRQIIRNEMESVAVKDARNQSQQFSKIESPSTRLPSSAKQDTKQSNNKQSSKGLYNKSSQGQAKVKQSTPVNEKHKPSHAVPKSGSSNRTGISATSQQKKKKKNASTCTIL
# Sequence of human Rap1A (Glu63) (1st to 184th residues) (human) (P62834 whole entry): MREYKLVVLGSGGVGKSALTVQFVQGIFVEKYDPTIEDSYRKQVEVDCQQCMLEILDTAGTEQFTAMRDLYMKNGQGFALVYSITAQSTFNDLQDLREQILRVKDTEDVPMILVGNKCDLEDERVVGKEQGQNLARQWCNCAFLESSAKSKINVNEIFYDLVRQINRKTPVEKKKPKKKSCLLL
binder,measurement,setting,value
B1,Stimulation (times) of GTPase activity,[1],6 times
same,"EC16 (µg/ml), activation of Ran GTPase",Ran,25 µg/mL
same,Stimulation (times) of GTPase activity,Rac1,0 times
same,Stimulation (times) of GTPase activity,[2],0.6 times
same,Stimulation (times) of GTPase activity,[3],0.3 times
same,Stimulation (times) of GTPase activity,[4],16 times
